Drawing on PMC6469509, this text covers binding result and Kd for 6 molecules.

Series [1] concerns the target T1, NLRX1 FL recombinant (human, UniProt Q86UT6 1-975). Briefly: SPR. (In general: SPR reads the build-up and loss of mass on a sensor chip optically.)
Series [2] concerns the target T2, NLRC3 NBD recombinant (human, UniProt Q7RTR2 139-460).
T2 sequence: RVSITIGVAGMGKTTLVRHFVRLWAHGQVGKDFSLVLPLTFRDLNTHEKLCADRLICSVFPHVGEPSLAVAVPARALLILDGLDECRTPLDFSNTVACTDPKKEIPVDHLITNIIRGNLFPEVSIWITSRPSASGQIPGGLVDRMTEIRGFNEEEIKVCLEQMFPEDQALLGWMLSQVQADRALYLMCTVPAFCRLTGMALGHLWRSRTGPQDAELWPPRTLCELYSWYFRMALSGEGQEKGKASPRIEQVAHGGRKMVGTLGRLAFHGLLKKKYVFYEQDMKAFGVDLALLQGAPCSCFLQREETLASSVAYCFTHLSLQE
Briefly: pull-down.

The target of series [3] is T1, NLRX1 FL recombinant. As to the kind of experiment: EMSA. (In general: A gel shift assay detects complexes by their altered migration in electrophoresis.)
For series [4], the target named is cGAS FL recombinant (mouse, UniProt Q8C6L5 1-507). As to the kind of experiment: EMSA.
Series [5] has as its target T3, NLRC3 FL recombinant (human, UniProt Q7RTR2 1-1065).
T3 sequence: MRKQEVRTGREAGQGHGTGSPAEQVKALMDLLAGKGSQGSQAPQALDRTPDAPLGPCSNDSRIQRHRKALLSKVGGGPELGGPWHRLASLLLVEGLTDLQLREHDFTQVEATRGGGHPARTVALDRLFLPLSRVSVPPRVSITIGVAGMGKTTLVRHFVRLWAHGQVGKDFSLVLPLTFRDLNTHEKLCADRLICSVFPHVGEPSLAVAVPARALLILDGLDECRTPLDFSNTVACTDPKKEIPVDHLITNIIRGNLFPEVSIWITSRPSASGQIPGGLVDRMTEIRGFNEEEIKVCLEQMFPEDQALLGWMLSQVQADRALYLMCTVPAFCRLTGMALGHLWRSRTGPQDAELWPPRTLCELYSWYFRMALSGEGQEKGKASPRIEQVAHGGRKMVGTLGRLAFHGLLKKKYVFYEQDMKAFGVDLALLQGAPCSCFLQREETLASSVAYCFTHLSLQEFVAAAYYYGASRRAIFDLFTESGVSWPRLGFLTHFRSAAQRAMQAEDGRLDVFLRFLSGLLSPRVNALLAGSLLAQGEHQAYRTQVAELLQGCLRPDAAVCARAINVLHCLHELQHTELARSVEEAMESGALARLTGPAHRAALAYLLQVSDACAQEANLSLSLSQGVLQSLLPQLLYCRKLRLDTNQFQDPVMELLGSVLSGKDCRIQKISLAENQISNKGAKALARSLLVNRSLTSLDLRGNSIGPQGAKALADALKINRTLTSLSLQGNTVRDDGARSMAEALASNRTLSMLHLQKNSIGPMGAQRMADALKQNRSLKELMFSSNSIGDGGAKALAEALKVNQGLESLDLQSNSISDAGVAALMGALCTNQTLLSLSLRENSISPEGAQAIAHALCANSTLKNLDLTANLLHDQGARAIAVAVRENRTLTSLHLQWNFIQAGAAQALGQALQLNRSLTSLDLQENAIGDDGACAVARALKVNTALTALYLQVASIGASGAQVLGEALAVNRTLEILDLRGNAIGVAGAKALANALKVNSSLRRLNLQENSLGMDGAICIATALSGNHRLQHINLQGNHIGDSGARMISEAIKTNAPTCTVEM
Briefly: SPR.

For series [6], the target named is T4, STING 155-341 (human, UniProt Q86WV6 155-341). As to the kind of experiment: SPR.
In series [7] the target is T4, STING 155-341. As to the kind of experiment: gel filtration. Background: In gel filtration, larger molecules generally elute earlier.
Series [8] deals with T3, NLRC3 FL recombinant. As to the kind of experiment: pull-down.
In series [9] the target is T1, NLRX1 FL recombinant. As to the kind of experiment: pull-down.

T1 sequence (Q86UT6 whole entry): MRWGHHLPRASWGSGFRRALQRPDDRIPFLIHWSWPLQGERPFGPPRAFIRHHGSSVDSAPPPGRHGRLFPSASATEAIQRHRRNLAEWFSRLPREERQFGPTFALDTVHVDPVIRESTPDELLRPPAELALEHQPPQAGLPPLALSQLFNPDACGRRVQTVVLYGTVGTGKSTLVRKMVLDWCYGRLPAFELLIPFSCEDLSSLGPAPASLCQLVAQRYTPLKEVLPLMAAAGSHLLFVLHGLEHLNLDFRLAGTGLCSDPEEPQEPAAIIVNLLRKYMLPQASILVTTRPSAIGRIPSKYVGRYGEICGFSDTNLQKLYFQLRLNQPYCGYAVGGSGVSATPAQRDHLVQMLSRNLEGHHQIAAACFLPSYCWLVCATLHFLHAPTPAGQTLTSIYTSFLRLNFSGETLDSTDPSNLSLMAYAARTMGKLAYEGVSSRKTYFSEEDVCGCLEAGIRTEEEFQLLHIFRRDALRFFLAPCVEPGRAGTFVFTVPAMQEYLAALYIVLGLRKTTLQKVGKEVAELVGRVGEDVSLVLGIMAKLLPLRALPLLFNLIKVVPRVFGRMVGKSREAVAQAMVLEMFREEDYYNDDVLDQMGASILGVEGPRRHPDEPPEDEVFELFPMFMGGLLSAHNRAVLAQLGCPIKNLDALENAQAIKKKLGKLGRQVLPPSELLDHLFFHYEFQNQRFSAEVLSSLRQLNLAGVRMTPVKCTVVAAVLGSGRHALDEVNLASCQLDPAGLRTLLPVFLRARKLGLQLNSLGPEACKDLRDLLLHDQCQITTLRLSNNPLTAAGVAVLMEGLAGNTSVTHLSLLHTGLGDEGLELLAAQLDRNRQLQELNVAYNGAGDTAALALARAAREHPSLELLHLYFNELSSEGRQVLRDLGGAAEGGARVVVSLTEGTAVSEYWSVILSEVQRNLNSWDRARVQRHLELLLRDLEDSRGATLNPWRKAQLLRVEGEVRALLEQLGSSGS
T4 sequence (Q86WV6 155-341): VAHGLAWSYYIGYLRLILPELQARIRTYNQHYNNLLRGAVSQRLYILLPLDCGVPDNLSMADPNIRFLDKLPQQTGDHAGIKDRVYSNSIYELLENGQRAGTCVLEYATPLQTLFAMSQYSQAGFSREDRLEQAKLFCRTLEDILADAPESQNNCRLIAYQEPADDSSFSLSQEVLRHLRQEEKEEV
Sequence of cGAS FL recombinant (Q8C6L5 whole entry): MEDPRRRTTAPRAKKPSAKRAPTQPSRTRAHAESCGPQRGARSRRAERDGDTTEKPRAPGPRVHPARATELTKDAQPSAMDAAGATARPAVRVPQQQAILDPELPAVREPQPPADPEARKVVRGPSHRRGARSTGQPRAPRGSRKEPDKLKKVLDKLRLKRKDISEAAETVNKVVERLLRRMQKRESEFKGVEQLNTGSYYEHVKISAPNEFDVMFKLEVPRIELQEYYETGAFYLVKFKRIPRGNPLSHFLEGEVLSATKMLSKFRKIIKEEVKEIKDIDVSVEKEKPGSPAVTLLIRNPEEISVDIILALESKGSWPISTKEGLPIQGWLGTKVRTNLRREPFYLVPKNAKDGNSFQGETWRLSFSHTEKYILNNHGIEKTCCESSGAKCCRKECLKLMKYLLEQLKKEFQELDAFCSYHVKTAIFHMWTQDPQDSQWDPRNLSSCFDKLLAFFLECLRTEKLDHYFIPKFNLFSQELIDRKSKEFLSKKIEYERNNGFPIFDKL

B1: HSV-60 dsRNA (dsRNA)
RNA 1: UAAGACACGAUGCGAUAAAAUCUGUUUGUAAAAUUUAUUAAGGGUACAAAUUGCCCUAGC
RNA 2: GCUAGGGCAAUUUGUACCCUUAAUAAAUUUUACAAACAGAUUUUAUCGCAUCGUGUCUUA
For the molecule B1, the binding result in series [1] is recorded as “binds”.

B2: HSV-60 dsDNA (dsDNA)
DNA 1: TAAGACACGATGCGATAAAATCTGTTTGTAAAATTTATTAAGGGTACAAATTGCCCTAGC
DNA 2: GCTAGGGCAATTTGTACCCTTAATAAATTTTACAAACAGATTTTATCGCATCGTGTCTTA
By Kd is commonly meant the concentration at which binding is half-saturated. Take B2: the binding result in [2] is listed as “no binding”; in series [3], “no binding”; in series [4], “binds”; in [6] it was “no binding”. Also, in series [5], the Kd stood at 3 nM.

B3: HSV-60 dsDNA unlabelled (dsDNA)
DNA 1: B2 DNA 1
DNA 2: B2 DNA 2
Regarding B3, in series [7], the binding result is given as “no binding”.

B4: HSV-60 ssDNA (ssDNA)
DNA: B2 DNA 1
Take B4: the binding result in series [5] was “binds”.

B5: HSV-60 DNA-RNA hybrid (DNA:RNA)
DNA: B2 DNA 1
RNA: B1 RNA 2
For the molecule B5, the binding result in [5] is “binds”.

B6: HSV-15 dsDNA (dsDNA)
DNA 1: TAAGACACGATGCGA
DNA 2: TCGCATCGTGTCTTA
Turning to B6, the binding result is given as “binds” in series [8] and “no binding” in series [9].
